From patent US20250368744A1 (CONCEPT TO MEDICINE BIOTECH, published 2025) come the findings set out here.

Assay [1] addresses T1, human C-C motif chemokine receptor 8 (CCR8) (human, UniProt P51685 1-355).
T1 construct: whole, on cells; also called human CCR8; hCCR8
Put plainly: FACS (MFI-PE) on HEK293 hCCR8 cells. The method, then: (§1) Briefly, HEK293 hCCR8 cell line, CHO-K1 cyno CCR8 cell line or CHO-K1 hCCR4 cell line was first incubated with 5-fold serially diluted and 8 doses with the above 10 chimeric Abs and hlgG1 control starting from 100 nM at 4° C. for 30 mins. After washing by FACS buffer, PE Goat anti-Human IgG Fc Secondary Antibody (eBioscience™, Invitrogen) was added to each well and incubated at 4° C. for 30 mins. Samples were washed twice with FACS buffer. The mean florescence intensity (MFI) of PE was evaluated by MACSQuant Analyzer 16.

In assay [2] the target is T1, human C-C motif chemokine receptor 8 …. The experiment in a line: cell-based or functional assay.
For assay [3] the target is unchanged. The experiment in a line: cell-based or functional assay. The source holds these as a separate data set.
In assay [4] the target is T2, human CCR4 (human, UniProt P51679 1-360).
T2 construct: whole, on cells; also called hCCR4
T2 sequence (looked up): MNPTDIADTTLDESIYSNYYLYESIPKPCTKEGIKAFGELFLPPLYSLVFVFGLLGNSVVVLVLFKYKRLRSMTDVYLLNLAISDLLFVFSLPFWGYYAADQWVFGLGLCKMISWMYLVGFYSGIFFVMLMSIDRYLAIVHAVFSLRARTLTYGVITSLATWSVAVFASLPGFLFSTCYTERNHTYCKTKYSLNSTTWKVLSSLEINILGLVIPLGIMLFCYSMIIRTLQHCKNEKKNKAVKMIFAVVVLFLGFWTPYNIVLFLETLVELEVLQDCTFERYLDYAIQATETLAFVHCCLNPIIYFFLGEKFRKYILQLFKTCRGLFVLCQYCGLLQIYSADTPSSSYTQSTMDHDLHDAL
The experiment in a line: FACS, CHO-K1 hCCR4 cells. On the procedure:
as §1

The target of assay [5] is T3, cyno CCR8 (cynomolgus, UniProt G7NYJ2 1-355).
T3 construct: whole, on cells; also called cynomolgus CCR8 protein
T3 sequence (G7NYJ2 entry or part of it): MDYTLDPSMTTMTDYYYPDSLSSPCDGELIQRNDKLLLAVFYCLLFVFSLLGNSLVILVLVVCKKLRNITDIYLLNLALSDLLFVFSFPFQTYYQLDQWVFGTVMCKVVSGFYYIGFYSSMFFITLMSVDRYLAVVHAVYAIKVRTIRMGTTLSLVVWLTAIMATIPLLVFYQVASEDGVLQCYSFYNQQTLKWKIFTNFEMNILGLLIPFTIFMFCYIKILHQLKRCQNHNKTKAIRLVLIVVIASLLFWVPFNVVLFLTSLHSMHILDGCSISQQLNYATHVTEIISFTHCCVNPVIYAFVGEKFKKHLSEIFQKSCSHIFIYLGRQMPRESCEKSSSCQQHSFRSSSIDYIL
Put plainly: FACS (MFI-PE) on CHO-K1 cyno CCR8 cells.

Assay [6] concerns the target T1, human C-C motif chemokine receptor 8 …. Put plainly: FACS (MFI-PE) on CHO-K1 hCCR8 cells.
For assay [7] the target is unchanged. The experiment in a line: cell-based or functional assay. This is another data set of the same source.
Assay [8] addresses T3, cyno CCR8. The experiment in a line: FACS (MFI-PE) on CHO-K1 cyno CCR8 cells. On the procedure:
as §1
This is another data set of the same source.

The target of assay [9] is T1, human C-C motif chemokine receptor 8 …. The experiment in a line: cell-based or functional assay. This is another data set of the same source.
Assay [10] shares this target. Put plainly: FACS (MFI-PE) on HEK293 hCCR8 cells. The source holds these as a separate data set.
The target is the same in assay [11]. Put plainly: cell-based or functional assay. The source holds these as a separate data set.
Assay [12] shares this target. Put plainly: cell-based or functional assay. The source holds these as a separate data set.

Substitutions are numbered along the chain they refer to. Like-named read-outs stand apart in the source and are kept apart here.

T1 sequence (P51685 whole entry): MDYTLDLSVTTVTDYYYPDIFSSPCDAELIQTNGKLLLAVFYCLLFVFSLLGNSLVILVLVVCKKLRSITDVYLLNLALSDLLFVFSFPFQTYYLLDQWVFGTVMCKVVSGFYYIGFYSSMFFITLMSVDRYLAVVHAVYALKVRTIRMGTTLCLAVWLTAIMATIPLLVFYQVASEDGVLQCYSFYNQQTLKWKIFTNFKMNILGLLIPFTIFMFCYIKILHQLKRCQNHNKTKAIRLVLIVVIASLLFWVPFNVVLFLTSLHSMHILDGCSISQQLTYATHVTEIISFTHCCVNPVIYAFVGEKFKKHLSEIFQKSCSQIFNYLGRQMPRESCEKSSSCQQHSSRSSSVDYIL

B1: 187B5F10 (antibody, V domains shown)
VH: EVQLVGSGGGLVQPKGSLKLSCAASGFNFNTYVMNWVRQAPGKGLEWVARIRTKSNNYATYYADSVKDRFTISRDDSESKLYLQMNNLKTEDTAMYYCVSGTITRLGGGMDYWGQGTSVTVSS
VL: DIVMTQAAPSVPVTPGESVSISCRSSKRLLHSNGNTYLYWFLQRPGQSPQLLIYRMSNLASGVPDRFSGSGSGTAFTLRISRVEAEDVGVYYCMQHLEYPFTFGGGTKLEIK
notes: tested as chimeric mAb
For orientation: EC50 means the concentration needed to bring the measured effect to its halfway point. A high value points to a less potent agent. For the molecule B1, in assay [1], a half-maximal effect (EC50) was put at 76.9 pM. In addition, the “IC50, hCCL1-induced Ca2+ flux (stimulation %), Chem-1 hCCR8 cells [lower graph]” value in assay [2] amounted to 1550 pM. Besides, the “IC50, hCCL1-induced migration of BaF3 hCCR8 cells (RLU) [cont'd) C]” value (“IC50, hCCL1-induced migration” below) in [3] was 721 pM. The binding result in assay [4] is on record as “no binding (tested: 100 nM (highest concentration tested))”.

B2: 200C9B9-C2 (antibody, V domains shown)
VH: EVQLVESGGGLVQPKGSLKLSCAASGFSFNTYVMNWVRQAPGKGLNWVARIRTKSNNYATFYVDSVKDRFTISRDDSENMLYLQMNNLKIEDTAIYYCVSGTITRLGAGLDYWGQGTSVTVSS
VL: B1 VL with R28S, G34A
notes: also called 200C9B9 VH with 200C9B9 VL NG-NA
Turning to B2, the EC50 in assay [5] worked out at 14600 pM; in assay [6], 207 pM.

B3: 195H8D10-C2 (antibody, V domains shown)
VH: B1 VH with M110L
VL: B1 VL with G34A
notes: also called 195H8D10 VH with 195H8D10 VL NG-NA
In the case of B3, in assay [5], the midpoint of the response, the EC50, lay at 517 pM. Besides, the “IC50, hCCL1-induced beta-arrestin recruitment (RLU), CHO-K1 hCCR8 cells” value in assay [7] was found to be 288 pM.

B4: 86D4E12A5 (antibody, V domains shown)
VH: DLQLKESGPGLVKPSQSLSLTCSVTGYSITSGYYWNWIRQLPGNKLEWMGYISFDGSNNYNPSLKTRISITRDTSKNQFFLKLNSVTSEDTATYFCARLRGLLLGHFDVWGTGTTVTVSS
VL: DVQMTQSSSYLSVPLGGRVTITCKASDHINNRLAWYQQKPGNAPRLLISGATKLETGIPSRFRGSGSGKDYTLSIFSLQTEDVATYYCQQYWSTSYTFGGGTKLELR
notes: tested as chimeric mAb
In turn, B4 had a concentration for a half-maximal effect (EC50) in assay [1] of 170 pM. The molecule further returned an EC50 in assay [8] of 122 pM. Besides, in [2], the “IC50 (read off the curve), hCCL1-induced Ca2+ flux (stimulation %), Chem-1 hCCR8 cells [upper graph]” value was about 2000 pM and the “IC50, hCCL1-induced Ca2+ flux (stimulation %), Chem-1 hCCR8 cells [lower graph]” value worked out at 12100 pM. In [3], the “IC50, hCCL1-induced migration” value is 2680 pM. In addition, the binding result in assay [4] is listed as “no binding (tested: 100 nM (highest concentration tested))”. Moreover, the “IC50, hCCL1-induced beta-arrestin recruitment (RLU), CHO-K1 hCCR8 cells” value in [9] was determined as 11200 pM.

B5: 99D1-1E11 (antibody, V domains shown)
VH: B4 VH with L41F, F54Y, F95Y, A97V, L99E
VL: B4 VL with V2I, P14A
notes: tested as chimeric mAb
For the molecule B5, the concentration for a half-maximal effect (EC50) in assay [1] was 101 pM; in assay [8], 94.2 pM. For the same molecule, the binding result in assay [4] is given as “no binding (tested: 100 nM (highest concentration tested))”.

B6: 96G3-1F10 (antibody, V domains shown)
VH: DLQLKESGPGLVKPSQSLSLTCSVTGYSITSGYYWNWIRQFPGNKLEWMGFISYDGNNNYNPSLKNRISITRDTSKNQFFLNVKSVTTEDTATYYCSRATGLRKAWFAYWGQGTLVTVSA
VL: DIQMTQSSSYLSVSLGGRVTITCKASDHINNWLAWYQQKPGNAPRLLISDTTSLGTGVPSRFRGSGSGKDYTLSITSLQTEDVATYFCQQYWSYPYTFGGGTKLEIR
notes: tested as chimeric mAb
For B6, the EC50 in assay [1] turned out to be 109 pM; in assay [8] it was 85.2 pM. For the same molecule, in assay [2], the “IC50, hCCL1-induced Ca2+ flux (stimulation %), Chem-1 hCCR8 cells [upper graph]” value was 15200 pM. Further, the “IC50, hCCL1-induced migration” value in [3] stood at 5280 pM. Besides, in assay [4], the binding result is recorded as “no binding (tested: 100 nM (highest concentration tested))”. In addition, in assay [9], the “IC50, hCCL1-induced beta-arrestin recruitment (RLU), CHO-K1 hCCR8 cells” value came out at 9000 pM.

B7: 115C5E3B8 (antibody, V domains shown)
VH: DVQLQESGPGLVKPSQSLSLTCSVTGYSITSGYYWNWIRQFPGNKLEWMGYISYDGYNDYNPSLKNRISITRDTSKNQFFLKLNSVTTEDTATYYCARETGLRKAWFAYWGQGTLVTVSG
VL: B6 VL with W32R, T52S, G55E, R63S, S74R, F87Y, S93G, Y94T, R107K
notes: tested as chimeric mAb
B7: the EC50 in assay [1] came to 126 pM. For the same molecule, in [2], the “IC50, hCCL1-induced Ca2+ flux (stimulation %), Chem-1 hCCR8 cells [upper graph]” value stood at 17800 pM. The binding result in assay [4] is given as “no binding (tested: 100 nM (highest concentration tested))”. Moreover, the “IC50, hCCL1-induced beta-arrestin recruitment (RLU), CHO-K1 hCCR8 cells” value in [9] was 2280 pM.

B8: 101D5G10G4 (antibody, V domains shown)
VH: B6 VH with F51Y, V83L, K84N
VL: B6 VL
notes: tested as chimeric mAb
With B8, the EC50 in assay [1] and in [8] was 118 pM in each case. Moreover, the “IC50, hCCL1-induced Ca2+ flux (stimulation %), Chem-1 hCCR8 cells [upper graph]” value in assay [2] amounted to 25900 pM. Besides, in [4], the binding result is recorded as “no binding (tested: 100 nM (highest concentration tested))”. Moreover, the “IC50, hCCL1-induced beta-arrestin recruitment (RLU), CHO-K1 hCCR8 cells” value in [9] was 96900 pM.

B9: 84D1-2H3 (antibody, V domains shown)
VH: EVQLQQSGPVLVKPGASVKMSCKASGYTFTDYYVNWVKKSHGKSPEWIGIIKPYNGGTSYNQKFKGKATLTVDKSSSTVYMELNSLTSEDSAVYHCARFAYSRNPYAMDYWGQGTSVTVSS
VL: DVLLTQTPLSLPVSLGDQASISCRSSQSIVHSTGNTYLEWYLQKPGQSPKVLIYKVSTRFSGVPDRFSGSGSGTDFTLKISRVEAEDLGVYYCFQGSHVPPTFGGGTKLEIK
notes: tested as chimeric mAb of the mouse hybridoma clone
On to B9, for which the EC50 in assay [1] stood at 47.3 pM; in assay [8] it was 27.3 pM. For the same molecule, the “IC50, hCCL1-induced Ca2+ flux (stimulation %), Chem-1 hCCR8 cells; fitted value, the curve stays at about 93 to 100 % beside hIgG1 [upper graph]” value in assay [2] amounted to 22000 pM. For the same molecule, in assay [4], the binding result is “no binding (tested: 100 nM (highest concentration tested))”. In [9], the “IC50, hCCL1-induced beta-arrestin recruitment (RLU), CHO-K1 hCCR8 cells; fitted value, points scatter between about 24000 and 33000 RLU with no clear inhibition” value came out at 206 pM.

B10: Hu195H8D10-1 NG-NA (antibody, V domains shown)
VH: EVQLVESGGGLVQPGGSLRLSCAASGFNFNTYVMNWVRQAPGKGLEWVGRIRTKSNNYATYYADSVKDRFTISRDDSKNSLYLQMNSLKTEDTAVYYCARGTITRLGGGLDYWGQGTLVTVSS
VL: DIVMTQSPLSLPVTPGEPASISCRSSKRLLHSNANTYLYWYLQKPGQSPQLLIYRMSNLASGVPDRFSGSGSGTDFTLKISRVEAEDVGVYYCMQHLEYPFTFGGGTKLEIK
notes: humanized, PTM site removed
Regarding B10, the EC50 in [10] was found to be 33 pM. In addition, the “IC50, hCCL1-induced beta-arrestin recruitment (RLU), CHO-K1 hCCR8 cells” value in assay [11] amounted to 1520 pM.

B11: Hu195H8D10-7 NG-NA (antibody, V domains shown)
VH: B10 VH with G49A, A99V, R100S
VL: B10 VL with D75A
notes: humanized, PTM site removed
B11: the “IC50, hCCL1-induced Ca2+ flux (stimulation %), Chem-1 hCCR8 cells” value in assay [12] came out at 490 pM. The molecule further gave an EC50 in [10] of 92 pM. The “IC50, hCCL1-induced beta-arrestin recruitment (RLU), CHO-K1 hCCR8 cells” value in assay [11] was 5250 pM.

B12: Hu200C9B9-3 NG-NA (antibody, V domains shown)
VH: B10 VH with N28S, Y61F, A63V, G108A
VL: B10 VL with R28S, D75A
notes: humanized, PTM site removed
As for B12, in [12], the “IC50, hCCL1-induced Ca2+ flux (stimulation %), Chem-1 hCCR8 cells” value was 210 pM. Further, in assay [10], the midpoint of the response, the EC50, lay at 52 pM. For the same molecule, the “IC50, hCCL1-induced beta-arrestin recruitment (RLU), CHO-K1 hCCR8 cells” value in [11] is 1740 pM.
